Results from US20040077828A1 (US Dept. of Health and Human Services, published 2004).
Numbering of substitutions follows the chain as printed. Where no end group is shown, it is not given here.

T1: naturally occurring sFRP-1 present in the cultures
T1 sequence (Q8C4U3 32-314, species assumed, looked up): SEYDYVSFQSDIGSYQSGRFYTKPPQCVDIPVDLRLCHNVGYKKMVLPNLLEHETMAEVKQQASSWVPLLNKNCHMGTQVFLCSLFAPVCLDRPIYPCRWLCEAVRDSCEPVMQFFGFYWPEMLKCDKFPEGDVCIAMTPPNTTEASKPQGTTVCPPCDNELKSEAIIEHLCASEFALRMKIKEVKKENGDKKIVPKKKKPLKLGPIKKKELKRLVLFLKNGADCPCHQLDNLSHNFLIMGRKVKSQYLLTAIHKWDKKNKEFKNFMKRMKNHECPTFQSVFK

B1: ΔCRD-H/M (other)
single chain: EYDYVSFQSDIGPYQSGRFYTKPPQIAMTPPNATEASKPQGTTVCPPCDNELKSEAIIEHLCASEFALRMKIKEVKKENGDKKIVPKKKKPLKLGPIKKKDLKKLVLYLKNGADCPCHQLDNLSHHFLIMGRKVKSQYLLTAIHKWDKKNKEFKNFMKKMKNHECPTFQSVFKQAYVEQKLISEEDLNSAVDHHHHHH
notes: the sheet prints H/M, the text M/H; also called human sFRP-ΔCRD-M/H; sFRP-1 derivative lacking the CRD
B2: A-C2-expressing M13 phage (peptide linked to gene III coat protein) (other)
chain: QGTLVDGRWLQL
modifications: not fully specified
notes: also called A-C2 phage; not shown: M13 phage gene III coat protein
B3: B-B9 M13 phage (peptide linked to gene III coat protein) (other)
chain: LVDGRWLYNPHH
modifications: not fully specified
notes: the text gives 27; also called B-B9 phage; not shown: M13 phage gene III coat protein
B4: recombinant soluble RANKL (PeproTech) (ligand)
chain: IRAEKAMVDGSWLDLAKRSKLEAQPFAHLTINATDIPSGSHKVSLSSWYHDRGWAKISNMTFSNGKLIVNQDGFYYLYANICFRHHETSGDLATEYLQLMVYVTKTSIKIPSSHTLMKGGSTKYWSGNSEFHFYSINVGGFFKLRSGEEISIEVSNPSLLDPDQDATYFGAFKVRDID
notes: Reagent of the ELISA assays; also called sRANKL
B5: recombinant human secreted Frizzled-related protein-1 (sFRP-1) (other)
chain: T1 sequence (Q8C4U3 32-314, species assumed, looked up) with S14P, V32A, M76A, T143A, E211D, R214K, F218Y, N236H, R269K
notes: also called full-length sFRP-1
B6: A-E4-expressing M13 phage (peptide linked to gene III coat protein) (other)
chain: VVDGRWVQGLED
modifications: not fully specified
notes: Printed as VVDGRWVQGLED; also called A-E4 phage; not shown: M13 phage gene III coat protein

What was measured:
[1] = molecular target: B4; assay: ELISA: wells coated with sFRP-1 or derivative, incubated with soluble RANKL, bound RANKL detected; triplicates
Procedure: FIG. 12 is a graph of the binding avidity of several sFRP-1 deletion mutants for RANKL in ELISA experiments. Wells were coated either with full-length sFRP-1 or with any one of a set of epitope-tagged sFRP-1 deletion mutants (Uren et al., J Biol Chem 275:4374-4382, 2000) or BSA control, and then sequentially incubated with soluble RANKL and reagents to detect RANKL bound to the wells. The results shown are the mean +/−S.D. of triplicate measurements from a representative experiment.
ELISA experiments were generally performed as previously described (Uren et al., J. Biol. Chem. 275:4374-4382, 2000), with modifications depending on the sFRP binding partner to be tested. Typically, wells were coated with 0.5 or 1 μg of sFRP-1, blocked with BSA (0.2%, 1%, or 4%) and then incubated with putative binding partner overnight at room temperature. When investigating the binding of peptide/AP chimeras, after aspiration of bacterial broths, wells were washed and incubated with p-nitrophenolphosphate (pNPP). Color development was determined at 405 nm with an ELISA reader. […] Following overnight incubation at room temperature, RANKL solutions were aspirated and bound RANKL was detected by sequential incubations with primary antibody to RANKL, secondary antibody coupled with AP and pNPP. […]

[2] = molecular target: B5; assay: phage ELISA, sFRP-1-coated against BSA-coated wells
Procedure: Amplified phage recovered from bacterial broth after this first enrichment step were subjected to two more rounds of panning in wells coated with sFRP-1 as described in the previous paragraph, except that the phage were incubated for only 2 hours and 1 hour in the second and third panning steps, respectively. After the third round of panning, phage obtained from the sFRP-1-coated well were titered and seeded on a lawn of bacteria to permit isolation of phage from 200 separate colonies. Bacteria from each of these colonies were grown in broth, pelleted by centrifugation and phage retrieved in the supernatant. Each of these phage supernatants was tested for binding to sFRP-1-coated ELISA wells versus wells only coated with the BSA blocking solution. Phage were detected in this assay with primary antibody directed against phage coat protein (Pharmacia Biotech, Uppsala, Sweden, #27-9411-01) and standard detection reagents.
To identify peptide sequences that bind sFRP-1, ˜25×10⁹ phages from a library containing a diverse repertoire of twelve-amino acid residue segments linked to the gene III coat protein of M13 phage were screened. After three successive rounds of panning for phage that bound to ELISA wells preincubated with sFRP-1, the phage preparation selected for its ability to bind sFRP-1 was titered and then plated on a lawn of bacteria. Phage from 200 separate colonies of lysed bacteria were picked, grown in bacterial broth overnight, recovered in supernatant, and tested for their ability to bind preferentially to sFRP-1 versus BSA in an ELISA. Phage that bound at least five times more avidly to sFRP-1 than BSA-coated wells were subjected to nucleotide sequence analysis to determine the identity of the peptide sequence responsible for this binding specificity.

[3] = molecular target: B5; assay: Isothermal titration calorimetry: A-C2 peptide (200 µM in PBS) injected into sFRP-1 (10 µM in PBS); no unit printed in the box
Procedure: (§1) ITC experiments were performed with a VP-ITC MicroCalorimeter MicroCal, LLC, Northhampton, Mass.) according to the manufacturer's User Manual. In brief, 6 μl aliquots of A-C2 (200 μM, dissolved in PBS) were injected at regular intervals into a chamber containing sFRP-1 (10 μM, also in PBS). Increases in temperature of the chamber resulting from the binding of A-C2 and sFRP-1 were determined as a measure of the heat produced by the binding reaction. Several parameters, included enthalpy and dissociation constant, were calculated from these measurements. This technique is commonly used to quantify the thermodynamic properties of binding interactions between proteins and peptides.
(§2) Binding was evident, as heat was generated when aliquots of AC2 solution were added to a chamber containing sFRP-1 dissolved in PBS. By contrast, no heat was produced when AC2 was added to a chamber containing only PBS.

[4] = molecular target: B5; assay: Isothermal titration calorimetry: A-C2 peptide (200 µM in PBS) injected into sFRP-1 (10 µM in PBS)
Procedure: as §1, §2

[5] = molecular target: T1, naturally occurring sFRP-1 present in …; assay: cell-based or functional assay
[6] = molecular target: B5; assay: isothermal titration calorimetry, A-C2 (200 uM) injected into sFRP-1 (10 uM) in PBS
Procedure: as §1, §2

[7] = molecular target: T2, bovine serum albumin (bovine, UniProt P02769 25-607); assay: ELISA: serial dilutions of soluble RANKL on wells treated with BSA only; detection with RANKL antibody, AP-coupled secondary antibody and pNPP
T2 construct: Control coat; also called BSA
T2 sequence (P02769 25-607 limits assumed): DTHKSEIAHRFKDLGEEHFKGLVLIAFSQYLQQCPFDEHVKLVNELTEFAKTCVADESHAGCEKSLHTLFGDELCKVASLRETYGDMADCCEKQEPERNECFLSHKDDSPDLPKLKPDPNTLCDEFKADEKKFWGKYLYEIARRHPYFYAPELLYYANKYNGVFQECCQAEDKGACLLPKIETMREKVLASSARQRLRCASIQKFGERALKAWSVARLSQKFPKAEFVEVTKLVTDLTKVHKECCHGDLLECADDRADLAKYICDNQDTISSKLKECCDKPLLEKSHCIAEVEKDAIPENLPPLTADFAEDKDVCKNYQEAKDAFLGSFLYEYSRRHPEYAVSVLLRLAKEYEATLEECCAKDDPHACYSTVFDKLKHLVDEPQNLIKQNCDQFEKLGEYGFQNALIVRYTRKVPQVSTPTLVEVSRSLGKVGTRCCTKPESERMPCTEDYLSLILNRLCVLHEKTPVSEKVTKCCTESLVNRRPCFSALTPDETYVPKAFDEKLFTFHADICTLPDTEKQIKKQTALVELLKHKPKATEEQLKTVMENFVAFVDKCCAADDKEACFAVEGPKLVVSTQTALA
Procedure: (§3) ELISA experiments were generally performed as previously described (Uren et al., J. Biol. Chem. 275:4374-4382, 2000), with modifications depending on the sFRP binding partner to be tested. Typically, wells were coated with 0.5 or 1 μg of sFRP-1, blocked with BSA (0.2%, 1%, or 4%) and then incubated with putative binding partner overnight at room temperature. When investigating the binding of peptide/AP chimeras, after aspiration of bacterial broths, wells were washed and incubated with p-nitrophenolphosphate (pNPP). Color development was determined at 405 nm with an ELISA reader. For competition experiments, soluble peptides were preincubated with peptide/AP chimeras in bacterial broth for 30 min at room temperature prior to transfer into ELISA wells coated with sFRP-1 or BSA. When testing RANKL binding to sFRP-1, serial dilutions of soluble RANKL were assayed in replicate. Following overnight incubation at room temperature, RANKL solutions were aspirated and bound RANKL was detected by sequential incubations with primary antibody to RANKL, secondary antibody coupled with AP and pNPP. Similar experimental designs were employed when other TNFα family members were examined for binding to sFRPs, and when sFRP-1 derivatives or sFRP-2 were the binding targets for RANKL.
(§4) The possibility that sFRP-1 (SEQ ID NO: 3) and RANKL interact directly with each other was tested using an ELISA assay. […]

[8] = molecular target: B5; assay: ELISA: serial dilutions of soluble RANKL on sFRP-1-coated, BSA-blocked wells; detection with RANKL antibody, AP-coupled secondary antibody and pNPP
Procedure: as §3, §4

[9] = molecular target: T3, alkaline phosphatase itself (UniProt P00634 22-471 = phosphatase, limits assumed); assay: ELISA, sFRP-1-coated wells against BSA wells
T3 construct: Control for the peptide/AP fusions; also called AP
T3 sequence (P00634 22-471 limits assumed): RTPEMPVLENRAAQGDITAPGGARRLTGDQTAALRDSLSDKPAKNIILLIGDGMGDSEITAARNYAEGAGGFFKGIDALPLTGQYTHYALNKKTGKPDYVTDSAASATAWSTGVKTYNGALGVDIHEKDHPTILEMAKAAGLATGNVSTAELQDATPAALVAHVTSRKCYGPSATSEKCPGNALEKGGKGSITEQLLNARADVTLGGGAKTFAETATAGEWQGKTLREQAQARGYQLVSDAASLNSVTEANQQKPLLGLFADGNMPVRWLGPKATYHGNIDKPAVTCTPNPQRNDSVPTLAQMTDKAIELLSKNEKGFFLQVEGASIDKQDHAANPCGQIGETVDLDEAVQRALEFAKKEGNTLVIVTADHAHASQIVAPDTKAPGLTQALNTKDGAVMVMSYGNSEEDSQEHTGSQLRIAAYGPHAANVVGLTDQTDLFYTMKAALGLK

B1: no binding [1].

With B2 the “Specificity (sFRP-1/BSA)” value [2] was 10 ratio of binding to sFRP-1 wells over BSA wells.

For B3, the “Specificity (sFRP-1/BSA)” value [2] was 5 ratio of binding to sFRP-1 wells over BSA wells.

In the case of QGTLVDGRWLQL (also called AC2 peptide) [A-C2 synthetic 12-mer peptide], the ΔH [3] is reported as -3620, the ΔS [3] is reported as 12.6 and the N [4] is reported as 1.14. The “TRAP+ multinucleated cells, osteoblast and adult spleen cell co-cultures” value [5] was 10 fold increase and the Kd [6] was 3.9 µM.

With B4 the binding result [7] was “no binding (tested: 10 ug/ml)” and the “EC50 (read off the curve)” value [8] was ~1 µg/mL.

B5: no binding [9].

In the case of B6, the “Specificity (sFRP-1/BSA)” value [2] is reported as 10 ratio of binding to sFRP-1 wells over BSA wells.
